Test results published in article PMC4484599.

Target: Sp-1 human recombinant protein (Promega) (Homo sapiens, UniProt P08047 1-785)
Test: EMSA

Sp-1 human recombinant protein (Promega), sequence (P08047 whole entry): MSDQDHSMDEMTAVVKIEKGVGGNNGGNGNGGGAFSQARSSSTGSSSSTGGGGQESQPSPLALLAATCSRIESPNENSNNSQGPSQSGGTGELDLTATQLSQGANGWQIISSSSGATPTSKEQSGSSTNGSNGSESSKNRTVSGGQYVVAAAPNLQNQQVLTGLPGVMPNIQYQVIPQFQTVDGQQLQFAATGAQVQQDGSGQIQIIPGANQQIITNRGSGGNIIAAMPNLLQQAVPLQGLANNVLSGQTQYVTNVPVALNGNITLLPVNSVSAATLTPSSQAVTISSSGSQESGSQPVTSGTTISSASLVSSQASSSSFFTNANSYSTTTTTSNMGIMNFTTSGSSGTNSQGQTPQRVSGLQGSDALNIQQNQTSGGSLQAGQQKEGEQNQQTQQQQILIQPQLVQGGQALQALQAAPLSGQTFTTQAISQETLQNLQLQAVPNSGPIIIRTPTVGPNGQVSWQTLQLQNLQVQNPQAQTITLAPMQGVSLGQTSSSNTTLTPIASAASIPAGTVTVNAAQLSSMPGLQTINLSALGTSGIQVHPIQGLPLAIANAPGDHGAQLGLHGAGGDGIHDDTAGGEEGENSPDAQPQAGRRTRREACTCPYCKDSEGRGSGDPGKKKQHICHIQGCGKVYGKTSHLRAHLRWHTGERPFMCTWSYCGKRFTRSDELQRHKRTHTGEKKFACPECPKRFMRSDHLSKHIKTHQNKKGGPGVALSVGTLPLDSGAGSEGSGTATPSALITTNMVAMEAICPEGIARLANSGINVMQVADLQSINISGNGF

B1: Sp-1 probe (ER alpha promoter) (dsDNA)
DNA 1: TCGTGCGCCCCCGCCCCCTGGCCGTG
DNA 2: CACGGCCAGGGGGCGGGGGCGCACGA
B1: binds.
